In patent US20040049800A1, “Rapid methods for assessing therapeutic activity using animals expressing constitutively active G protein coupled receptors” (priority 2002, published 2004):
Where a chain is given by its changes, count along the chain named.

Key:
[1] = system: SMS-Luc reporter in HEK293 cells; test: SMS-Luc luciferase reporter assay of MC-4 receptors in HEK293 cells; assay type: cell-based
Procedure: (§1) Briefly, HEK293 cells were cotransfected, as described above, with an expression vector encoding either the wild-type MC-4 receptor or the Asp146Met mutant MC-4 receptor and the reporter construct, SMS-Luc. As a negative control, cells were transfected with SMS-Luc and pcDNA1. Basal and ligand (αMHS) induced activity of the negative control, the wild-type MC-4 receptor, and the Asp146Met mutant MC-4 receptor were measured using the luciferase assay described above. […] Other constitutively active MC-4 receptors may be generated by this or any other approach and introduced as transgenics into animals of the invention

cAMP production = test: basal level cAMP production of MC-4 receptor mutant; assay type: cell-based; settings: FIG. 2
From the text: FIG. 2 is a graph showing the constitutive activity of a D146M MC-4 receptor mutant as assayed by measuring basal level cAMP production.
as §1

[2] = target: Asn150Ala mutant rat mu opioid receptor (rat) (UniProt P33535); test: cell-based or functional assay
[3] = target: wild-type rat mu opioid receptor (rat) (UniProt P33535); test: cell-based or functional assay
[4] = system: SRE-Luc + Gq5i reporter in HEK293 cells; test: SRE-Luc/Gq5i luciferase reporter assay in transfected HEK293 cells; assay type: cell-based; settings: for stimulation of basal level activity: Asn150Ala mutant versus wild-type receptor; for Ligand Induced Activity (Light Emission) / Basal Activity (Light Emission): HEK293 cells; for Ligand Induced Activity (Light Emission): ligand DAMGO; for Basal Activity (Light Emission): no ligand
Procedure: Constitutive activity of the Asn150Ala mutant rat mu opioid receptor was assessed using a luciferase assay. The rat mu opioid receptor is a Gαi coupled receptor. Therefore we chose to use the Gq5i reporter system, described in detail above (Broach and Thorner, supra), which switches the signaling pathway from Gαi to Gαq for reliable positive readout. HEK293 cells were transfected with the reporter construct SRE-Luc, an expression vector containing nucleic acid encoding Gq5i (Broach and Thorner, supra), and an expression vector containing nucleic acid encoding either the wild-type or the Asn150Ala mutant rat mu opioid receptor. Basal and ligand-stimulated luciferase activity was measured. The ligand used in this assay was [D-Ala^2-MePhe^4, Gly-ol^5]enkephalin] (DAMGO). As a negative control, HEK293 cells were transfected with pcDNA1 (empty vector DNA), SRE-Luc, and the expression vector containing nucleic acid encoding Gq5i (Broach and Thorner, supra).
The luciferase assay was carried out as follows. On day 1, HEK293 cells in a T75 flask were washed with 15 ml serum-free media (or PBS), trypsinized with 5 ml 0.05% trypsin-EDTA (Gibco #25300-062), incubated at 37° C. for 3 minutes at which time 6-7 ml complete HEK293 media (Gibco #12100-046) and 10% Fetal Bovine Serum (Intergen #1050-90) were added. Thereafter, cells were collected in 50 ml centrifuge tubes, pelleted at 800-900 rpm (RCF ˜275), and resuspend in 20 ml complete media. The cells were counted using a haemocytometer and diluted to 85,000 cells/ml in complete media. Using a repeat pipettor or cell plater, 100 μl of cells were added to each well of a Primaria 96-well plate (Falcon #353872). Cells were then incubated at 37° C., 5% CO2 until use at 48 hours.
On day 3, cells were transfected using LipofectAMINE™ according to the manufacturer's protocol (Gibco #18324-012, Rockville, Md.).
On day 4, cells were stimulated as follows. Ligands for the receptor, either DAMGO or a non-peptide ligand (e.g., naloxone or naltrexone), were diluted to a desired concentration in serum-free media containing 0.15 mM PMSF (or other protease inhibitor(s)). The transfection media was then completely removed from cells and 50-100 μl stimulation media (i.e., media containing candidate ligands or the corresponding ligand free solvent) was added to each well. The cells were incubated for the desired time (standard is overnight) at 37° C., 5% CO2, although the optimal stimulation time may vary depending on the particular receptor used. The optimal incubation time may be determined systematically by testing a range of incubation times and determining which one yields the highest level of stimulation. For concomitant assessment of two ligands (e.g., ligand induced inhibition of forskolin stimulated CRE activity) each stimulus is prepared at two times the desired final concentration and mixed in equal volumes prior to addition to cells.
On day 5, an assay for luciferase expression was carried out according to the manufacturer's instructions (Packard, Meridin, Conn.)

[5] = system: phospholipase C-mediated production of inositol phosphate in COS-7 cells; settings: absence of agonist; cited from earlier work
[6] = system: SMS-Luc reporter in HEK293 cells; test: SMS-Luc luciferase reporter assay of CCK-BR receptors in HEK293 cells; assay type: cell-based; settings: FIG. 3
Procedure: In addition to these studies, luciferase assays were performed to measure the constitutive activity of the Leu325Glu CCK-BR mutant. HEK293 cells were transfected (as described above) with SMS-Luc and an expression vector encoding any one of pcDNA1, wild-type CCK-BR, or Leu325Glu CCK-BR.

Molecule: Asp146Met mutant MC-4 receptor: melanocortin-4 receptor with Asp at position 146 of the DRY motif replaced by Met
- basal level activity versus wild-type MC-4 receptor [1]: higher basal level activity than its wild-type counterpart
- constitutive activity in cAMP assay (cAMP production): exhibited constitutive activity

Molecule: [D-Ala^2-MePhe^4, Gly-ol^5]enkephalin (peptide)
- Ligand Induced Activity (Light Emission), SRE-Luc + Gq5i luciferase reporter in HEK293 cells (Light Emission) [2]: 87000
- Ligand Induced Activity (Light Emission), SRE-Luc + Gq5i luciferase reporter in HEK293 cells (Light Emission) [3]: 87500

B1: Asn150Ala rat mu opioid receptor: rat mu opioid receptor with Asn150Ala point mutation at position 150 of SEQ ID NO: 1; constitutively active (protein, listed as Rattus norvegicus)
chain: MDSSTGPGNTSDCSDPLAQASCSPAPGSWLNLSHVDGNQSDPCGLNRTGLGGNDSLCPQTGSPSMVTAITIMALYSIVCVVGLFGNFLVMYVIVRYTKMKTATNIYIFNLALADALATSTLPFQSVNYLMGTWPFGTILCKIVISIDYYAMFTSIFTLCTMSVDRYIAVCHPVKALDFRTPRNAKIVNVCNWILSSAIGLPVMFMATTKYRQGSIDCTLTFSHPTWYWENLLKICVFIFAFIMPILIITVCYGLMILRLKSVRMLSGSKEKDRNLRRITRMVLVVVAVFIVCWTPIHIYVIIKALITIPETTFQTVSWHFCIALGYTNSCLNPVLYAFLDENFKRCFREFCIPTSSTIEQQNSTRVRQNTREHPSTANTVDRTNHQLENLEAETAPLP
- stimulation of basal level activity [4]: *6.5-fold stimulation of basal level activity.
- stimulation of basal level activity ([4]; listed as Asn150Ala mutant mu opioid receptor): approximately 6.5 fold
- Ligand Induced Activity (Light Emission) [4]: 86,996
- Basal Activity (Light Emission) [4]: *56,498

B2: wild-type rat mu opioid receptor: wild-type rat mu opioid receptor (SEQ ID NO: 1), Gαi coupled receptor, comparator (protein, listed as Rattus norvegicus)
chain: B1 chain with A150N
- Ligand Induced Activity (Light Emission) [4]: 87,461
- Basal Activity (Light Emission) [4]: 8,436

B3: Leu325Glu CCK-BR mutant: human CCK-BR with point mutation Leu325Glu in the third intracellular loop; constitutively active (protein, UniProt P32239 1-447, looked up, variant L325E)
Gastrin/cholecystokinin type …: MELLKLNRSVQGTGPGPGASLCRPGAPLLNSSSVGNLSCEPPRIRGAGTRELELAIRITLYAVIFLMSVGGNMLIIVVLGLSRRLRTVTNAFLLSLAVSDLLLAVACMPFTLLPNLMGTFIFGTVICKAVSYLMGVSVSVSTLSLVAIALERYSAICRPLQARVWQTRSHAARVIVATWLLSGLLMVPYPVYTVVQPVGPRVLQCVHRWPSARVRQTWSVLLLLLLFFIPGVVMAVAYGLISRELYLGLRFDGDSDSDSQSRVRNQGGLPGAVHQNGRCRPETGAVGEDSDGCYVQLPRSRPALELTALTAPGPGSGSRPTQAKELAKKRVVRMLLVIVVLFFLCWLPVYSANTWRAFDGPGAHRALSGAPISFIHLLSYASACVNPLVYCFMHRRFRQACLETCARCCPRPPRARPRALPDEDPPTPSIASLSRLSYTTISTLGPG
- agonist-independent constitutive activity (inositol phosphate production) [5]: triggers constitutive production of inositol phosphates to levels exceeding wild-type CCK-BR
- basal level activity compared to wild-type CCK-BR [6]: increased basal level activity compared to the wild-type CCK-BR
